Assay results published in patent publication CN109879966A (PERSONGEN BIOMEDICINE SUZHOU CO LTD, dated 2019).
One block for each binder: values may come before it.

Target: T1, CD19 (Biacore ligand coupled to the chip) (UniProt P15391 20-291, limits assumed)
T1 construct: also called 配体:CD19
T1 sequence (looked up): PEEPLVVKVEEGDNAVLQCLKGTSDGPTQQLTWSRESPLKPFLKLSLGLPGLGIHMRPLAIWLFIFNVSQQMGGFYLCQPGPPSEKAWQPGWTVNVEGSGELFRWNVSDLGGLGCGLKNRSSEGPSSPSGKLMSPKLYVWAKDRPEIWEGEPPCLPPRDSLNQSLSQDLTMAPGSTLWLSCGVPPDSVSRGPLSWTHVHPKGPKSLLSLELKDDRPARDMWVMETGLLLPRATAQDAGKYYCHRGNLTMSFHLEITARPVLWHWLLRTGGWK
Test: Biacore SPR, CD19 coupled to chip, antibody as analyte 3.125-100 ug/ml

Kd: 28.4 nM
koff: 0.0028 s⁻¹
kon: 98600 M⁻¹ s⁻¹
B1: HM1711091-T4L2H2 (antibody, V domains shown)
VH: QVTLRESGPALVKPTQTLTLTCTFSGVSLPDYGVSWIRQPPGKALEWLAVIWGSETTYYNSALKSRLTISKDTSKNQVVLTMTNMDPVDTATYYCAKHYYYGGSYAMDYWGQGTTVTVSS
VL: EIVLTQSPATLSLSPGERATLSCRASQDISKYLNWYQQKPGQAPRLLIYHTSRLHSGIPDRFSGSGSGTDFTLTISRLEPEDIAVYYCQQGNTLPYTFGQGTKLEI
notes: Full antibody (全抗) used in the Biacore assay; also called 人源化单抗T4L2H2; 人源化T4L2H2抗体

Kd: 15.9 nM
koff: 0.00441 s⁻¹
kon: 278000 M⁻¹ s⁻¹
B2: HM1711091-T1L1H4 (antibody, V domains shown)
VH: QVQLQESGPGLVAPSETLSLTCTVSGVSLPDYGVSWIRQPPRKGLEWIGVIWGSETTYYNSALKSRVTISVDTSKNQFSLKLSSVTAADTAVYYCAKHYYYGGSYAMDYWGQGTLVTVSS
VL: DIQMTQSPSSLSASVGDRVTITCRASQDISKYLNWYQQKPGKAPKLLIYHTSRLHSGVPSRFSGSGSGTDFTFTISSLQPEDIATYYCQQGNTLPYTFGGGTKVEI
notes: Full antibody (全抗) used in the Biacore assay; also called 人源化单抗T1L1H4; 人源化T1L1H4抗体
